± gives the standard deviation of the averaged measurements.
B1: library; a variant is named by its letters at N, in order (parent)
chain: GCUGUCACCGAGAAACUGUGAAGUAUAUCUUAAACCUGGGCACUUAAAAGAUAUAUGGAGUUAGUAGUGCAACCUGCUCGGUCUGAUGAGUCCNNNNNNGGACGAAACAGC

Experiments:
cyclic di-GMP [1] = variants of: B1; assay: FACS-Seq fitted mean relative fluorescence mCherry/BFP without ligand (log10 relative fluorescence); HEK293T; ligand: cyclic di-GMP (c-di-GMP-II aptamer); higher = higher reporter protein expression; details: ligand present: no
How it was run: (§1)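 Enriched HEK293T cells carrying, by lentivirus, an mCherry reporter with the ribozyme switch and an EF1α-BFP marker spent 48 h with or without ligand and were sorted into 6 bins by mCherry/BFP. MiSeq sequencing of PCR-amplified bin genomic DNA gave bin counts. Fluorescence was calculated as the fitted normal mean of those counts. Counts were binned on log10(mCherry/BFP), and means were scaled to five spiked-in control ribozymes.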

cyclic di-GMP [2] = variants of: B1; assay: normalized RNA/DNA level without ligand (relative to sTRSVctl = 100) (log10 (% of sTRSVctl)); HEK293T; ligand: cyclic di-GMP (c-di-GMP-II aptamer); higher = less ribozyme self-cleavage, higher mRNA level; details: reporter: mCherry (pCS4076), ligand present: no
How it was run: (§2)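 Library plasmids encoding reporter-linked ribozyme switches (mCherry, or eGFP for some folinic acid experiments) were transfected into HEK293T at 4 µg per 6-well well. Ligand, when used, was added 1 h before transfection. Total RNA was extracted with EDTA 72 h later, then reverse-transcribed, amplified, barcoded and sequenced. RNA level was RNA reads over DNA reads, divided by a spiked-in non-cleaving control (or the top 25 sequences), ×100, log10; only sequences with ≥100 DNA reads were kept.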

cyclic di-GMP [3] = variants of: B1; assay: FACS-Seq fitted mean relative fluorescence mCherry/BFP with ligand (log10 relative fluorescence); HEK293T; ligand: cyclic di-GMP (c-di-GMP-II aptamer); ligand concentration (+) FACS-Seq: 1 mM; higher = higher reporter protein expression; details: ligand present: yes
How it was run: as §1

cyclic di-GMP [4] = variants of: B1; assay: normalized RNA/DNA level with ligand (relative to sTRSVctl = 100) (log10 (% of sTRSVctl)); HEK293T; ligand: cyclic di-GMP (c-di-GMP-II aptamer); ligand concentration (+) RNA-Seq: 1 mM; higher = less ribozyme self-cleavage, higher mRNA level; details: reporter: mCherry (pCS4076), ligand present: yes
How it was run: as §2

**Q.** With AGUGCC as the variant, how does the “FACS-Seq fitted mean (log10)” value (cyclic di-GMP [1]) read?
**A.** Its value is 0.324 ± 0.079.

**Q.** What about the “normalized RNA/DNA level without ligand (log10)” value (cyclic di-GMP [2]) of the same variant?
**A.** The value was 1.82 ± 0.11.

**Q.** What about the “FACS-Seq fitted mean (log10)” value (cyclic di-GMP [3]) of the same variant?
**A.** The value was 0.275 ± 0.078.

**Q.** And the “normalized RNA/DNA level with ligand (log10)” value (cyclic di-GMP [4])?
**A.** Its value is 1.92 ± 0.15.

**Q.** With CGGAAU as the variant, how does the “FACS-Seq fitted mean (log10)” value (cyclic di-GMP [1]) read?
**A.** Its value is -0.644 ± 0.016.

**Q.** And the “normalized RNA/DNA level without ligand (log10)” value (cyclic di-GMP [2])?
**A.** The value was 1.34 ± 0.11.

**Q.** And the “FACS-Seq fitted mean (log10)” value (cyclic di-GMP [3])?
**A.** Its value is -0.366 ± 0.027.

**Q.** And the “normalized RNA/DNA level with ligand (log10)” value (cyclic di-GMP [4])?
**A.** Its value is 1.44 ± 0.13.

**Q.** What does the source list for CGGAAA?
**A.** FACS-Seq fitted mean (log10) (cyclic di-GMP [1]): -0.619 ± 0.028; normalized RNA/DNA level without ligand (log10) (cyclic di-GMP [2]): 1.16 ± 0.075; FACS-Seq fitted mean (log10) (cyclic di-GMP [3]): -0.44 ± 0.058; normalized RNA/DNA level with ligand (log10) (cyclic di-GMP [4]): 1.28 ± 0.09

**Q.** What does the source list for AGUGGG?
**A.** FACS-Seq fitted mean (log10) (cyclic di-GMP [1]): -0.534 ± 0.12; normalized RNA/DNA level without ligand (log10) (cyclic di-GMP [2]): 1.69 ± 0.069; FACS-Seq fitted mean (log10) (cyclic di-GMP [3]): -0.365 ± 0.059; normalized RNA/DNA level with ligand (log10) (cyclic di-GMP [4]): 1.8 ± 0.062

**Q.** For AGUGUC, which “FACS-Seq fitted mean (log10)” value (cyclic di-GMP [1]) is on record?
**A.** The value was -0.2695 ± 0.0013.

**Q.** And the “normalized RNA/DNA level without ligand (log10)” value (cyclic di-GMP [2])?
**A.** The value was 1.62 ± 0.071.

**Q.** And the “FACS-Seq fitted mean (log10)” value (cyclic di-GMP [3])?
**A.** Its value is 0.0884 ± 0.21.

**Q.** And the “normalized RNA/DNA level with ligand (log10)” value (cyclic di-GMP [4])?
**A.** The value was 1.76 ± 0.052.

**Q.** For CGUUCU, which “FACS-Seq fitted mean (log10)” value (cyclic di-GMP [1]) is on record?
**A.** The value was -0.248 ± 0.08.

**Q.** And the “normalized RNA/DNA level without ligand (log10)” value (cyclic di-GMP [2])?
**A.** The value was 1.51 ± 0.084.

**Q.** What about the “FACS-Seq fitted mean (log10)” value (cyclic di-GMP [3]) of the same variant?
**A.** The value was 0.0758 ± 0.01.

**Q.** And the “normalized RNA/DNA level with ligand (log10)” value (cyclic di-GMP [4])?
**A.** The value was 1.68 ± 0.068.

**Q.** What does the source list for CGUUCC?
**A.** FACS-Seq fitted mean (log10) (cyclic di-GMP [1]): -0.821 ± 0.086; normalized RNA/DNA level without ligand (log10) (cyclic di-GMP [2]): 1.735 ± 0.0027; FACS-Seq fitted mean (log10) (cyclic di-GMP [3]): -0.407 ± 0.1; normalized RNA/DNA level with ligand (log10) (cyclic di-GMP [4]): 1.87 ± 0.13

**Q.** What does the source list for CGUUCA?
**A.** FACS-Seq fitted mean (log10) (cyclic di-GMP [1]): -0.111 ± 0.098; normalized RNA/DNA level without ligand (log10) (cyclic di-GMP [2]): 1.39 ± 0.12; FACS-Seq fitted mean (log10) (cyclic di-GMP [3]): 0.115 ± 0.005; normalized RNA/DNA level with ligand (log10) (cyclic di-GMP [4]): 1.59 ± 0.12

**Q.** What does the source list for CGUGAC?
**A.** FACS-Seq fitted mean (log10) (cyclic di-GMP [1]): -0.217 ± 0.012; normalized RNA/DNA level without ligand (log10) (cyclic di-GMP [2]): 1.58 ± 0.081; FACS-Seq fitted mean (log10) (cyclic di-GMP [3]): 0.0888 ± 0.11; normalized RNA/DNA level with ligand (log10) (cyclic di-GMP [4]): 1.74 ± 0.092

**Q.** Which “FACS-Seq fitted mean (log10)” value (cyclic di-GMP [1]) does the source give for CGUGAU here?
**A.** Its value is -0.47 ± 0.026.

**Q.** What about the “normalized RNA/DNA level without ligand (log10)” value (cyclic di-GMP [2]) of the same variant?
**A.** Its value is 1.45 ± 0.057.

**Q.** And the “FACS-Seq fitted mean (log10)” value (cyclic di-GMP [3])?
**A.** The value was -0.173 ± 0.018.

**Q.** What about the “normalized RNA/DNA level with ligand (log10)” value (cyclic di-GMP [4]) of the same variant?
**A.** The value was 1.69 ± 0.07.

**Q.** How did the “FACS-Seq fitted mean (log10)” value (cyclic di-GMP [1]) turn out when CGUGAA was run?
**A.** Its value is -0.546 ± 0.02.

**Q.** And the “normalized RNA/DNA level without ligand (log10)” value (cyclic di-GMP [2])?
**A.** The value was 1.24 ± 0.057.

**Q.** And the “FACS-Seq fitted mean (log10)” value (cyclic di-GMP [3])?
**A.** The value was -0.396 ± 0.0075.

**Q.** And the “normalized RNA/DNA level with ligand (log10)” value (cyclic di-GMP [4])?
**A.** The value was 1.35 ± 0.099.

**Q.** Which results are given for UGUGAC?
**A.** FACS-Seq fitted mean (log10) (cyclic di-GMP [1]): 0.123 ± 0.24; normalized RNA/DNA level without ligand (log10) (cyclic di-GMP [2]): 1.644 ± 0.015; FACS-Seq fitted mean (log10) (cyclic di-GMP [3]): 0.27 ± 0.01; normalized RNA/DNA level with ligand (log10) (cyclic di-GMP [4]): 1.79 ± 0.082

**Q.** Which results are given for UGUGAU?
**A.** FACS-Seq fitted mean (log10) (cyclic di-GMP [1]): -0.736 ± 0.12; normalized RNA/DNA level without ligand (log10) (cyclic di-GMP [2]): 1.676 ± 0.012; FACS-Seq fitted mean (log10) (cyclic di-GMP [3]): -0.5759 ± 0.0014; normalized RNA/DNA level with ligand (log10) (cyclic di-GMP [4]): 1.81 ± 0.13

**Q.** With UGCGUU as the variant, how does the “FACS-Seq fitted mean (log10)” value (cyclic di-GMP [1]) read?
**A.** Its value is -0.0716 ± 0.19.

**Q.** And the “normalized RNA/DNA level without ligand (log10)” value (cyclic di-GMP [2])?
**A.** The value was 1.691 ± 0.0015.

**Q.** And the “FACS-Seq fitted mean (log10)” value (cyclic di-GMP [3])?
**A.** The value was 0.15 ± 0.093.

**Q.** And the “normalized RNA/DNA level with ligand (log10)” value (cyclic di-GMP [4])?
**A.** Its value is 1.9 ± 0.096.

**Q.** Which “FACS-Seq fitted mean (log10)” value (cyclic di-GMP [1]) does the source give for AGGGAG here?
**A.** Its value is -0.66 ± 0.02.

**Q.** What about the “normalized RNA/DNA level without ligand (log10)” value (cyclic di-GMP [2]) of the same variant?
**A.** The value was 1.6 ± 0.05.

**Q.** What about the “FACS-Seq fitted mean (log10)” value (cyclic di-GMP [3]) of the same variant?
**A.** The value was -0.378 ± 0.013.

**Q.** What about the “normalized RNA/DNA level with ligand (log10)” value (cyclic di-GMP [4]) of the same variant?
**A.** Its value is 1.73 ± 0.084.

**Q.** Which results are given for AGGUCA?
**A.** FACS-Seq fitted mean (log10) (cyclic di-GMP [1]): -0.483 ± 0.071; normalized RNA/DNA level without ligand (log10) (cyclic di-GMP [2]): 1.649 ± 0.0037; FACS-Seq fitted mean (log10) (cyclic di-GMP [3]): -0.219 ± 0.037; normalized RNA/DNA level with ligand (log10) (cyclic di-GMP [4]): 1.77 ± 0.14

**Q.** What does the source list for CGGGAA?
**A.** FACS-Seq fitted mean (log10) (cyclic di-GMP [1]): -0.636 ± 0.012; normalized RNA/DNA level without ligand (log10) (cyclic di-GMP [2]): 1.33 ± 0.033; FACS-Seq fitted mean (log10) (cyclic di-GMP [3]): -0.472 ± 0.015; normalized RNA/DNA level with ligand (log10) (cyclic di-GMP [4]): 1.36 ± 0.081

**Q.** CGGGAG was tested. Which “FACS-Seq fitted mean (log10)” value (cyclic di-GMP [1]) did it give?
**A.** Its value is -0.586 ± 0.063.

**Q.** And the “normalized RNA/DNA level without ligand (log10)” value (cyclic di-GMP [2])?
**A.** The value was 1.68 ± 0.017.

**Q.** What about the “FACS-Seq fitted mean (log10)” value (cyclic di-GMP [3]) of the same variant?
**A.** The value was -0.113 ± 0.0022.

**Q.** What about the “normalized RNA/DNA level with ligand (log10)” value (cyclic di-GMP [4]) of the same variant?
**A.** Its value is 1.79 ± 0.064.
